Our source for the KM, kcat (min^-1), thiols oxidized per minute and kcat/KM values is US20090042269.

This data set concerns the target reduced RNase (reduced pancreatic RNase).

B1: bovine QSOX1 (quiescin Q6 sulfhydryl oxidase 1) isolated from milk (protein)
chain: SALYSSSDPLTLLRADTVRSTVLGSSSAWAVEFFASWCGHCIAFAPTWKALANDVKDWRPALNLAALDCAEETNSAVCRDFNIPGFPTVRFFKAFSKTGSGTTLSVAGADVQTLRERLIDALESHSDTWPPACPPLEPARLEEITGFFARNNEEYLALIFEKEGSYLGREVTLDLSQHQGIAVRRVLNTERDVVNRFGVTNFPSCYLLSRNGSFSRVPALTESRSFYTTYLRKFSGSTRGAVQTTAAPATTSAVAPTVWKVADRSKIYMADLESALHYILRIEVGKFSVLEGQRLVALKKFMAVLAKYFRGRPLVQNFLHSMNDWLKKQQRKKIPYGFFKNALDSRKEGTVIAEKVNWVGCQGSEPHFRGFPCSLWILFHFLTVQAAQEGVDHPQERAKAQEVLQAIRGYVRFFFGCRECAGHFEQMASGSMHRVGSLNSAVLWFWSSHNKVNARLAGAPSEDPQFPKVQWPPRELCSACHNELRGTPVWDLDNILKFLKTHFSPSNIVLDFPSAGPGPWR
Take B1: the Michaelis constant (KM) is 60 µM; the kcat (min^-1), thiols oxidized per minute came to 1340 min⁻¹; the kcat/KM came out at 374000 M⁻¹ s⁻¹.

As a reminder, the KM is the substrate concentration at which the rate is half of its maximum. For orientation: kcat/KM means the turnover number divided by the Michaelis constant.
